One series relates to ASPC-1/PSC xenografts. The series is described as follows: PSC/ASPC-1 subcutaneous xenograft in athymic nude mice. Particulars: TLY012 IV 10 mg/kg every other day and/or sorafenib 20 mg/kg oral everyday for 2 weeks. It counts as in vivo. The procedure:
Six-week-old athymic nude mice were anesthetized for all procedures 5×10^6ASPC-1 cells (human pancreas adenocarcinoma ascites metastasis cell line derived from nude mouse xenografts initiated with cells from the ascites of a patient with cancer of the pancreas) were mixed with 5×10^4 PSC cells and injected in a subcutaneous in athymic nude mice. Before injection, the cells were trypsinized, counted, washed twice in 1×PBS and resuspended in 100 μl of Matrigel® matrix (Corning), and injected between the scapulae. Two weeks after the tumor transplantation, mice were injected with TLY012 via intravenous (IV) injection (10 mg/kg, every other day) for 2 weeks, while control mice received PBS. Western blot was performed on tissue extracts with antibodies against GAPDH (Santa Cruz 5 Biotechnology, sc-1694), α-SMA (Sigma, A2547), GRP78 (Santa Cruz Biotechnology, sc-13968), DR4 (Abcam, Cambridge, Mass., #13890), DR5 (Abcam, #47179), PDGF-Rb (Santa Cruz Biotechnology, sc-432), and Cl.PARP-1 (Cell Signaling Technology, #5625).
Comparative quantitative RT-PCR (qPCR) was performed in the tumor sample for fibrogenic markers. qPCR was performed in triplicate for each sample using fast SYBR Green Master Mix (Thermo Fisher Scientific) and StepOnePlus Real-Time PCR System (Thermo Fisher Scientific). The expression levels of target genes were normalized to the expression of 18s and calculated based on the comparative cycle threshold Ct method (2^−ΔΔCt).
Collagen deposition was detected with Masson's Trichrome staining and microscopy.
Mouse xenografts were generated as in Example 8. Two weeks after the tumor transplantation, mice were injected with TLY012 via intravenous (IV) injection (10 mg/kg, every other day) and/or sorafenib (20 mg/kg, oral everyday) for 2 weeks. The mice were euthanized when the tumor volume reached 1500 mm^3 and images of the excised xenografts recorded and tumor weight measured.

For series [1] the following is noted: in mice; cited from earlier work.
The conditions of series [2]: in rodents; cited from earlier work.
The conditions of series [3]: in apes; cited from earlier work.

Where two headings read alike, the source gives them in different places.

On to `CNC(=O)c1cc(Oc2ccc(NC(=O)Nc3ccc(Cl)c(C(F)(F)F)c3)cc2)ccn1` [Sorafenib, reference compound], for which, in the series with ASPC-1/PSC xenografts, the “tumor weight, Mean” value turned out to be 967 mg.

As for “5K-PEG-TRAIL: 5K PEG derivatized TRAIL reported by Kim et al. 2011a”, in series [1], the circulating half-life is reported as 5.3 h.

“20K-PEG-TRAIL: 20K PEG derivatized TRAIL reported by Kim et al. 2011a”: in series [1], the circulating half-life was 12.3 h.

As for “30K-PEG-TRAIL: 30K PEG derivatized TRAIL reported by Kim et al. 2011a”, the circulating half-life in series [1] was 17.7 h.

For “TRAIL: Tumor necrosis factor-related apoptosis-inducing ligand, unmodified, literature values”, the half-life result in series [2] is given as “several minutes”; in series [3], “about 30 minutes”. Further, the circulating half-life in series [1] is reported as 1.1 h.

As to “10K-PEG-TRAIL: 10K PEG derivatized TRAIL reported by Kim et al. 2011a”, the circulating half-life in series [1] was 6.2 h.

For the compound “2K-PEG-TRAIL: 2K PEG derivatized TRAIL reported by Kim et al. 2011a”, in series [1], the circulating half-life is on record as 3.9 h.

The values are drawn from patent publication US11767353B2, “Trail compositions with reduced immunogenicity” (Theraly Fibrosis, Inc., priority 2020, dated 2023).
